# B1: mAb7 (antibody, human IgG1, V domains shown)
# VH: QIQLVQSGSELKKPGASVKVSCKASGYTFTHYGMNWVRQAPGKGLKWMGWINTYTGEPTYADDFKGRFVFSLDASVSTAYLQISSLKAEDTAVYYCARRRYEGNYVFYYFDYWGQGTTVTVSS
# VL: DIQMTQSPSSLSASVGDRVTITCRASENIYSYFSWYQQKPGKAPKLLVYTAKTLAEGVPSRFSGSGSGTDFTLTISSLQPEDFATYYCQHHYVTPYTFGGGTKVEIK
# notes: Produced as Fc silent recombinant human IgG1 with heavy chain N297Q (Kabat EU numbering) and huCk constant domain; also called anti-CD39 antibody mAb7
# What was measured:
# Human CD39-L2 = target: T1, Human CD39-L2 (human, UniProt O75354 61-484, limits assumed); assay: ELISA, recombinant isoform coated, dose range of antibody
# T1 construct: Recombinant protein coated on ELISA plates; also called NTPDase6; ENTPD6
# T1 sequence: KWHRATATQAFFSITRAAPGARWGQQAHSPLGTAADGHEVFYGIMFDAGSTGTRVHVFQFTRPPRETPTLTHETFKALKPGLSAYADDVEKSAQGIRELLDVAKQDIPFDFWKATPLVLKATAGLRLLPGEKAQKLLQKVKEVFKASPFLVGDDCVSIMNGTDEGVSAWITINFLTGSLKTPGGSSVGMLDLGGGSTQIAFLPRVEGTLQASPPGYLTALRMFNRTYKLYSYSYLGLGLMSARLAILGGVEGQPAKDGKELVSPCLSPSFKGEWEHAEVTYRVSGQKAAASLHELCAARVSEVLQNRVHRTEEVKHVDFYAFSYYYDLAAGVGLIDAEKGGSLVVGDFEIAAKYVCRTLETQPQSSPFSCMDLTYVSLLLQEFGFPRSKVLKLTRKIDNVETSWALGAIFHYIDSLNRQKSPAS
# Description: (§1) Antibodies were tested for binding to recombinant human CD39 isoforms (Rec-huCD39 isoforms). The CD39 isoforms having amino acid sequences shown in the table below were coated in 96-well plate in PBS 1× at 500 ng/ml or 1 μg/ml at 4° C. overnight. Wells were washed in TBS Tween 20, and further saturated 2H at RT in TBS Blocking buffer (Thermo Fisher Scientific Inc.). Dose range concentration of primary antibody was incubated in TBS blocking buffer for 2 h at RT. Wells were washed in TBS Tween 20. […] Optical density was measured on Enspire at OD=450.
# Human CD39-L4 = target: T2, Human CD39-L4 (human, UniProt O75356 25-428); assay: as above
# T2 construct: Recombinant protein coated on ELISA plates; also called NTPDase5; ENTPD5
# T2 sequence: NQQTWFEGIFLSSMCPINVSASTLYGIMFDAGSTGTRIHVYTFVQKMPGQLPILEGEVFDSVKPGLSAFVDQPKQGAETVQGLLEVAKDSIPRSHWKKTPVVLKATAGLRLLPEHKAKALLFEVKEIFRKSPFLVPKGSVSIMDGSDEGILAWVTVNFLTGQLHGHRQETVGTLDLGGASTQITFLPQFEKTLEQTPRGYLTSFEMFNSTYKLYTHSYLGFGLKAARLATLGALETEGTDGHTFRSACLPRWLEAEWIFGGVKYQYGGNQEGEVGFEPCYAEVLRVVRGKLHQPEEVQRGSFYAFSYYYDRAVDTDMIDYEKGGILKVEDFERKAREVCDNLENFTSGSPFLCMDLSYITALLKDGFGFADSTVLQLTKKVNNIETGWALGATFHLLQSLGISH
# Description: as §1
# Human CD39-L3 = target: T3, Human CD39-L3 (human, UniProt O75355 44-485, limits assumed); assay: as above
# T3 construct: Recombinant protein coated on ELISA plates; also called NTPDase3; ENTPD3
# T3 sequence: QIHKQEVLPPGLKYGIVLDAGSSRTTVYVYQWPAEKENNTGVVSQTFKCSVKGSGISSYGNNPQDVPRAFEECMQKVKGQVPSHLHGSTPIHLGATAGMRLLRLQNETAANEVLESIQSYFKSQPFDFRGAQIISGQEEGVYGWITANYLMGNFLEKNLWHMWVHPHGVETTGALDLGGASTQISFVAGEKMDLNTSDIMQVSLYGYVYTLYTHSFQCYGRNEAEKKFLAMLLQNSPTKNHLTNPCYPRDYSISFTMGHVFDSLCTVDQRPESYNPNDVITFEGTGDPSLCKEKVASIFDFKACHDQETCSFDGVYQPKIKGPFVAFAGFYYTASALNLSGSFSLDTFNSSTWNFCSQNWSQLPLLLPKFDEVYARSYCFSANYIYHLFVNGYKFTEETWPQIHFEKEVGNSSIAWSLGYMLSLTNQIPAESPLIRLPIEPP
# Description: as §1
# [1] = target: T4, human CD39 endogenously expressed on Ramos human lymphoma cells (human, UniProt P49961 1-510); assay: cell-based or functional assay
# T4 sequence: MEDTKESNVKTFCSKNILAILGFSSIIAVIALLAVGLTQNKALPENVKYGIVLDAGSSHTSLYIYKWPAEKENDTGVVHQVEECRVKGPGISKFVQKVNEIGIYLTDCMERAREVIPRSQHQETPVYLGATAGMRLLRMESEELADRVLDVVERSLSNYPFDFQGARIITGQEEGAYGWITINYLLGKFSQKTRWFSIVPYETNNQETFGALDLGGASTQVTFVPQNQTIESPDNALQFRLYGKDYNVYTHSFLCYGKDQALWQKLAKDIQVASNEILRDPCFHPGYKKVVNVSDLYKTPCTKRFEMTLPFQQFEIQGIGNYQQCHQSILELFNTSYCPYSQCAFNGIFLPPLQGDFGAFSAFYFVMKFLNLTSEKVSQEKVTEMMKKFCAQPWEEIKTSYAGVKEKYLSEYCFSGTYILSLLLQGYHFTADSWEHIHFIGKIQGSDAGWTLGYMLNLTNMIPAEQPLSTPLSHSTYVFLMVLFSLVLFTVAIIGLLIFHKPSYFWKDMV
binder,measurement,setting,value
B1,binding result,Human CD39-L2,no binding
same,binding result,Human CD39-L4,no binding
same,binding result,Human CD39-L3,no binding
same,"inhibition of CD39 enzymatic activity (AMP generated by Ramos cells, Maldi TOF)",[1],≥ 90%

# Reference: patent US20190071514A1, “ANTI-CD39 ANTIBODIES” (INNATE PHARMA, priority 2016, published 2019)
